Experimental data: US6515118

Tests used:
[1] = system: Ac-Asp-Glu-Ala-Asp-aldehyde (Ac-DEAD-CHO)
[2] = target: T1, DFF-40, 40-kDa subunit of DNA Fragmentation Factor (DFF), purified from HeLa cell S-100 (UniProt O76075)
T1 sequence: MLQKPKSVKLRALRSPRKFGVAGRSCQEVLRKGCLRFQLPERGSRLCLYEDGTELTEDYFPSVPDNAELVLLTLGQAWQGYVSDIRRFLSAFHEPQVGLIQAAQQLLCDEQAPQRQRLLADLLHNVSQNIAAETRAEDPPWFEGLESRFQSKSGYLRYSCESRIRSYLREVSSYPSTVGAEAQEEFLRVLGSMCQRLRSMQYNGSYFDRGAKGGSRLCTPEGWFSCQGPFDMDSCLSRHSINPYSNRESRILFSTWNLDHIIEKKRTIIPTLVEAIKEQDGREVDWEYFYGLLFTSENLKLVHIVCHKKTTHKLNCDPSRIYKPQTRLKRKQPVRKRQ

[3] = system: DFF-45, 45-kDa subunit of DNA Fragmentation Factor (DFF), purified from HeLa cell S-100
[4] = system: lamin B1 in co-incubated nuclei
[5] = system: poly(ADP-ribose) polymerase (PARP) in co-incubated nuclei
[6] = system: recombinant DFF-45 fusion protein with a six-histidine tag at the NH2-terminus

Substance: active recombinant caspase-3
- cleavage of PARP and lamin B1 in co-incubated nuclei (immunoblot) [1]: Ac-DEAD SEQ ID NO:6-CHO still blocked the cleavage of both PARP and lamin B1 in the co-incubated nuclei
- cleavage of biotinylated DFF (SDS-PAGE, streptavidin-peroxidase chemiluminescence) [2]: the 40-kDa subunit remained intact
- cleavage of biotinylated DFF (SDS-PAGE, streptavidin-peroxidase chemiluminescence) [3]: Incubation with caspase-3 resulted in the cleavage of the 45-kDa subunit into fragments of molecular masses of 30 kDa and 11 kDa
- time course of lamin B1 cleavage in nuclei (immunoblot) [4]: the rate of Lamin B1 cleavage by caspase-3 remained the same with or without DFF
- rate of PARP cleavage in nuclei (immunoblot) [5]: The same conclusion was obtained when the rate of cleavage of PARP was measured
- cleavage of the purified fusion protein (SDS-PAGE) [6]: Incubation of this fusion protein with caspase-3 resulted in its cleavage into three fragments of 30 kDa, 18 kDa and 11 kDa at the early time point
